Data reported in paper PMC6224509 (2018).

What was measured:
Test in all cases: SPR; 37°C
[1] = target: human 4-1BB residues 24–186, wild type, His–Avi (human, UniProt Q07011 24-186)
[2] = target: human 4-1BB residues 24–186 I132R, His–Avi (human, UniProt Q07011 24-186, I132R)
[3] = target: human 4-1BB residues 24–186 M101R, His–Avi (human, UniProt Q07011 24-186, M101R)
Chain of human 4-1BB residues 24–186 M101R, His–Avi (Q07011 24-186 M101R): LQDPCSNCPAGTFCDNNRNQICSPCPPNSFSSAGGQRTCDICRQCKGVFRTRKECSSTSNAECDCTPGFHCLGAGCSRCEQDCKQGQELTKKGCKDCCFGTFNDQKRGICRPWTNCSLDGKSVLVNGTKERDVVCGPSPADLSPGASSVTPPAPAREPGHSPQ

Chain of human 4-1BB residues 24–186, wild type, His–Avi (Q07011 24-186): as the sequence (Q07011 24-186 M101R) above, with R78M counted along it
Chain of human 4-1BB residues 24–186 I132R, His–Avi (Q07011 24-186 I132R): as the sequence (Q07011 24-186 M101R) above, with R78M, I109R counted along it

koff [1]: 0.014 s⁻¹ | koff [2]: 0.012 s⁻¹ | koff [3]: 0.0095 s⁻¹
B1: urelumab (fully human IgG4 mAb) (antibody, V domains shown)
VH: QVQLQQWGAGLLKPSETLSLTCAVYGGSFSGYYWSWIRQSPEKGLEWIGEINHGGYVTYNPSLESRVTISVDTSKNQFSLKLSSVTAADTAVYYCARDYGPGNYDWYFDLWGRGTLVTVSS
VL: EIVLTQSPATLSLSPGERATLSCRASQSVSSYLAWYQQKPGQAPRLLIYDASNRATGIPARFSGSGSGTDFTLTISSLEPEDFAVYYCQQRSNWPPALTFGGGTKVEIK
